In paper PMC4934132:

Biological target: HPV16 L1 pentamers (L1 assembly mutant C428S) (HPV16)
Experiment: electron microscopy

HPV16 L1 pentamers (L1 assembly mutant C428S) (natural protein)
stoichiometry N: 5
